Test results from US20090018093.
Like-named read-outs stand apart in the source and are kept apart here.

System: Immunoglobulin E (IgE) (Homo sapiens), P01854-1
Test: filter

Chain of Immunoglobulin E (IgE) (Homo sapiens), P01854-1 (P01854 other isoform, or with tags, fused parts or gaps): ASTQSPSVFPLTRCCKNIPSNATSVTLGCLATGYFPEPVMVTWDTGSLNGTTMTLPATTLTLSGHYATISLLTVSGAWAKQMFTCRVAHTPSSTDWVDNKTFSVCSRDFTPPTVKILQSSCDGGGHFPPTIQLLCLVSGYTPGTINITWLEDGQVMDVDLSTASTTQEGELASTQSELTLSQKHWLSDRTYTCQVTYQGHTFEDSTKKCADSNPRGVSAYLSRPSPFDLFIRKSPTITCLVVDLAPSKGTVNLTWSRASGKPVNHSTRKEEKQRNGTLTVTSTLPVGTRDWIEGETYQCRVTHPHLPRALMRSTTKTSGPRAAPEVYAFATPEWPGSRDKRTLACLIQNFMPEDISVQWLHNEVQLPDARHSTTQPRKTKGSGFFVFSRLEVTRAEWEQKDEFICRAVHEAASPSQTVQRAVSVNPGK

GGGGCTACTTCATCCGTCCCTCCTAGTGGGTAGCCCC [ARC478]
Kd: 0.4 nM

GGGGCTACTTGATCCGTCCCTCCTAGTGGGTAGCCCC [ARC477]
Kd: 0.6 nM

GGGGCTACTTTATCCGTTCCTCCTAGTGGGTAGCCCC [ARC1391]
Kd (2'-OMe at 1-4,7,33-37, PS 8-9, 3' idT [2'-OMe at 1-4,7,33-37, PS linkage 8-9 (internal N = PS, not a base), 3' inverted dT cap (terminal N, left out)], DPBS Mg/Ca, BSA): 4.4 nM

GGGGCTACTTTATCCGTTCCTCCTAGTGGGTAGCCCC [ARC1392]
Kd (2'-OMe at 1-4,7,33-37, PS 9-10, 3' idT [2'-OMe at 1-4,7,33-37, PS linkage 9-10 (internal N = PS, not a base), 3' inverted dT cap (terminal N, left out)], DPBS Mg/Ca, BSA): 3 nM

GGGGCTACTTTATCCGTTCCTCCTAGTGGGTAGCCCC [ARC1394]
Kd (2'-OMe at 1-4,7,33-37, PS 11-12, 3' idT [2'-OMe at 1-4,7,33-37, PS linkage 11-12 (internal N = PS, not a base), 3' inverted dT cap (terminal N, left out)], DPBS Mg/Ca, BSA): 8.1 nM

GGGGCTACTTTATCCGTTCCTCCTAGTGGGTAGCCCC [ARC1395]
Kd (2'-OMe at 1-4,7,33-37, PS 12-13, 3' idT [2'-OMe at 1-4,7,33-37, PS linkage 12-13 (internal N = PS, not a base), 3' inverted dT cap (terminal N, left out)], DPBS Mg/Ca, BSA): 5.7 nM

GGGGCTACTTTATCCGTTCCTCCTAGTGGGTAGCCCC [ARC1396]
Kd (2'-OMe at 1-4,7,33-37, PS 13-14, 3' idT [2'-OMe at 1-4,7,33-37, PS linkage 13-14 (internal N = PS, not a base), 3' inverted dT cap (terminal N, left out)], DPBS Mg/Ca, BSA): 2 nM

GGGGCTACTTTATCCGTTCCTCCTAGTGGGTAGCCCC [ARC1397]
Kd (2'-OMe at 1-4,7,33-37, PS 14-15, 3' idT [2'-OMe at 1-4,7,33-37, PS linkage 14-15 (internal N = PS, not a base), 3' inverted dT cap (terminal N, left out)], DPBS Mg/Ca, BSA): 1.8 nM

GGGGCTACTTTATCCGTTCCTCCTAGTGGGTAGCCCC [ARC1398]
Kd (2'-OMe at 1-4,7,33-37, PS 15-16, 3' idT [2'-OMe at 1-4,7,33-37, PS linkage 15-16 (internal N = PS, not a base), 3' inverted dT cap (terminal N, left out)], DPBS Mg/Ca, BSA): 2.7 nM

GGGGCTACTTTATCCGTTCCTCCTAGTGGGTAGCCCC [ARC1399]
Kd (2'-OMe at 1-4,7,33-37, PS 16-17, 3' idT [2'-OMe at 1-4,7,33-37, PS linkage 16-17 (internal N = PS, not a base), 3' inverted dT cap (terminal N, left out)], DPBS Mg/Ca, BSA): 1.8 nM

GGGGCTACTTTATCCGTTCCTCCTAGTGGGTAGCCCC [ARC1400]
Kd (2'-OMe at 1-4,7,33-37, PS 17-18, 3' idT [2'-OMe at 1-4,7,33-37, PS linkage 17-18 (internal N = PS, not a base), 3' inverted dT cap (terminal N, left out)], DPBS Mg/Ca, BSA): 2.4 nM

GGGGCTACTTTATCCGTTCCTCCTAGTGGGTAGCCCC [ARC1401]
Kd (2'-OMe at 1-4,7,33-37, PS 18-19, 3' idT [2'-OMe at 1-4,7,33-37, PS linkage 18-19 (internal N = PS, not a base), 3' inverted dT cap (terminal N, left out)], DPBS Mg/Ca, BSA): 2 nM

GGGGCTACTTTATCCGTTCCTCCTAGTGGGTAGCCCC [ARC1402]
Kd (2'-OMe at 1-4,7,33-37, PS 19-20, 3' idT [2'-OMe at 1-4,7,33-37, PS linkage 19-20 (internal N = PS, not a base), 3' inverted dT cap (terminal N, left out)], DPBS Mg/Ca, BSA): 2.1 nM

GGGGCTACTTTATCCGTTCCTCCTAGTGGGTAGCCCC [ARC1404]
Kd (2'-OMe at 1-4,7,33-37, PS 21-22, 3' idT [2'-OMe at 1-4,7,33-37, PS linkage 21-22 (internal N = PS, not a base), 3' inverted dT cap (terminal N, left out)], DPBS Mg/Ca, BSA): 1.8 nM

GGGGCTACTTTATCCGTTCCTCCTAGTGGGTAGCCCC [ARC1405]
Kd (2'-OMe at 1-4,7,33-37, PS 22-23, 3' idT [2'-OMe at 1-4,7,33-37, PS 22-23, 3' idT cap after 37 (left out)], DPBS Mg/Ca, BSA): 2.5 nM

GGGGCTACTTTATCCGTTCCTCCTAGTGGGTAGCCCC [ARC1406]
Kd (2'-OMe at 1-4,7,33-37, PS 23-24, 3' idT [2'-OMe at 1-4,7,33-37, PS 23-24, 3' idT cap after 37 (left out)], DPBS Mg/Ca, BSA): 3.2 nM

GGGGCTACTTTATCCGTTCCTCCTAGTGGGTAGCCCC [ARC1407]
Kd (2'-OMe at 1-4,7,33-37, PS 24-25, 3' idT [2'-OMe at 1-4,7,33-37, PS 24-25, 3' idT cap after 37 (left out)], DPBS Mg/Ca, BSA): 1.8 nM

GGGGCTACTTTATCCGTTCCTCCTAGTGGGTAGCCCC [ARC1408]
Kd (2'-OMe at 1-4,7,33-37, PS 25-26, 3' idT [2'-OMe at 1-4,7,33-37, PS 25-26, 3' idT cap after 37 (left out)], DPBS Mg/Ca, BSA): 1 nM

GGGGCTACTTTATCCGTTCCTCCTAGTGGGTAGCCCC [ARC1411]
Kd (2'-OMe at 1-4,7,33-37, PS 28-29, 3' idT [2'-OMe at 1-4,7,33-37, PS 28-29, 3' idT cap after 37 (left out)], DPBS Mg/Ca, BSA): 5.4 nM

GGGGCTACTTTATCCGTTCCTCCTAGTGGGTAGCCCC [ARC1412]
Kd (2'-OMe at 1-4,7,33-37, PS 29-30, 3' idT [2'-OMe at 1-4,7,33-37, PS 29-30, 3' idT cap after 37 (left out)], DPBS Mg/Ca, BSA): 2.5 nM

GGGGCTACTTTATCCGTTCCTCCTAGTGGGTAGCCCC [ARC1413]
Kd (2'-OMe at 1-4,7,33-37, PS 30-31, 3' idT [2'-OMe at 1-4,7,33-37, PS 30-31, 3' idT cap after 37 (left out)], DPBS Mg/Ca, BSA): 3.3 nM

GGGGCTACTTTATCCGTTCCTCCTAGTGGGTAGCCCC [ARC1414]
Kd (2'-OMe at 1-4,7,33-37, PS 31-32, 3' idT [2'-OMe at 1-4,7,33-37, PS 31-32, 3' idT cap after 37 (left out)], DPBS Mg/Ca, BSA): 2.9 nM

GGGGCTACTTTATCCGTTCCTCCTAGTGGGTAGCCCC [ARC1415]
Kd (2'-OMe at 1-4,7,33-37, multiple PS as printed, 3' idT [2'-OMe at 1-4,7,33-37, PS 9-10,12-13,14-15,18-19,21-22,24-25,27-28,30-31, 3' idT cap after 37 (left out)], DPBS Mg/Ca, BSA): 1.2 nM

GGGGCTACTTTATCCGTTCCTCCTAGTGGGTAGCCCCN [ARC1280]
Kd (2'-OMe at 16, 3' idT, DPBS Mg/Ca, BSA): 0.6 nM

GGGGCTACTTTATCCGTTCCTCCTAGTGGGTAGCCCCN [ARC1283]
Kd (2'-OMe at 19, 3' idT, DPBS Mg/Ca, BSA): 0.6 nM

GGGGCTACTTTATCCGTTCCTCCTAGTGGGTAGCCCCN [ARC1284]
Kd (2'-OMe at 20, 3' idT, DPBS Mg/Ca, BSA): 0.1 nM

GGGGCTACTTTATCCGTTCCTCCTAGTGGGTAGCCCCN [ARC1287]
Kd (2'-OMe at 23, 3' idT, DPBS Mg/Ca, BSA): 1 nM

GGGGCTACTTTATCCGTTCCTCCTAGTGGGTAGCCCCN [ARC1294]
Kd (2'-OMe at 30, 3' idT, DPBS Mg/Ca, BSA): 8 nM

GGGGCTACTTTATCCGTTCCTCCTAGTGGGTAGCCCCN [ARC1296]
Kd (2'-OMe at 32, 3' idT, DPBS Mg/Ca, BSA): 1.2 nM

GGGGCTACTTTATCCGTTCCTCCTAGTGGGTAGCCCCN [ARC1297]
Kd (2'-OMe at 33, 3' idT, DPBS Mg/Ca, BSA): 0.8 nM

GGGGCTACTTTATCCGTTCCTCCTAGTGGGTAGCCCCT [ARC656]
Kd (3' idT [38 = 3' inverted dT], dPBS Ca/Mg + BSA): 0.2 nM

GGGGCTACTTTATCCGTTCCTCCTAGTGGGTAGCCCCT [ARC1265]
Kd (2'-OMe at 1, 3' idT [1=2'-OMe G, 38=3' inverted dT], DPBS Mg/Ca, BSA): 0.2 nM

GGGGCTACTTTATCCGTTCCTCCTAGTGGGTAGCCCCT [ARC1266]
Kd (2'-OMe at 2, 3' idT [2 (2'-OMe G), 38 (3' inverted dT)], DPBS Mg/Ca, BSA): 0.2 nM

GGGGCTACTTTATCCGTTCCTCCTAGTGGGTAGCCCCT [ARC1267]
Kd (2'-OMe at 3, 3' idT [3 (2'-OMe G), 38 (3' inverted dT)], DPBS Mg/Ca, BSA): 0.1 nM

GGGGCTACTTTATCCGTTCCTCCTAGTGGGTAGCCCCT [ARC1268]
Kd (2'-OMe at 4, 3' idT [4 (2'-OMe G), 38 (3' inverted dT)], DPBS Mg/Ca, BSA): 0.2 nM

GGGGCTACTTTATCCGTTCCTCCTAGTGGGTAGCCCCT [ARC1269]
Kd (2'-OMe at 5, 3' idT [5 (2'-OMe C), 38 (3' inverted dT)], DPBS Mg/Ca, BSA): 0.3 nM

GGGGCTACTTTATCCGTTCCTCCTAGTGGGTAGCCCCT [ARC1271]
Kd (2'-OMe at 7, 3' idT [7 (2'-OMe A), 38 (3' inverted dT)], DPBS Mg/Ca, BSA): 0.2 nM

GGGGCTACTTTATCCGTTCCTCCTAGTGGGTAGCCCCT [ARC1272]
Kd (2'-OMe at 8, 3' idT [8 (2'-OMe C), 38 (3' inverted dT)], DPBS Mg/Ca, BSA): 0.2 nM

GGGGCTACTTTATCCGTTCCTCCTAGTGGGTAGCCCCT [ARC1276]
Kd (2'-OMe at 12, 3' idT [12 (2'-OMe A), 38 (3' inverted dT)], DPBS Mg/Ca, BSA): 3 nM

GGGGCTACTTTATCCGTTCCTCCTAGTGGGTAGCCCCT [ARC1278]
Kd (2'-OMe at 14, 3' idT [14 (2'-OMe C), 38 (3' inverted dT)], DPBS Mg/Ca, BSA): 2 nM

GGGGCTACTTTATCCGTTCCTCCTAGTGGGTAGCCCCT [ARC1279]
Kd (2'-OMe at 15, 3' idT [15 (2'-OMe C), 38 (3' inverted dT)], DPBS Mg/Ca, BSA): 0.8 nM

GGGGCTACTTTATCCGTTCCTCCTAGTGGGTAGCCCCT [ARC1286]
Kd (DNA with 2'-OMe C22, 3' idT [2'-OMe C22, 3' inverted dT38], dPBS Ca/Mg + BSA): 7 nM

GGGGCTACTTTATCCGTTCCTCCTAGTGGGTAGCCCCT [ARC1292]
Kd (DNA with 2'-OMe G28, 3' idT [2'-OMe G28, 3' inverted dT at 38], dPBS Ca/Mg + BSA): 22 nM

GGGGCTACTTTATCCGTTCCTCCTAGTGGGTAGCCCCT [ARC1298]
Kd (2'-OMe at 34, 3' idT [2'-OMe: 34, 38 = 3' inverted dT], DPBS Mg/Ca, BSA): 0.4 nM

GGGGCTACTTTATCCGTTCCTCCTAGTGGGTAGCCCCT [ARC1299]
Kd (2'-OMe at 35, 3' idT [2'-OMe: 35, 38 = 3' inverted dT], DPBS Mg/Ca, BSA): 0.5 nM

GGGGCTACTTTATCCGTTCCTCCTAGTGGGTAGCCCCT [ARC1300]
Kd (2'-OMe at 36, 3' idT [2'-OMe: 36, 38 = 3' inverted dT], DPBS Mg/Ca, BSA): 0.7 nM

GGGGCTACTTTATCCGTTCCTCCTAGTGGGTAGCCCCT [ARC1301]
Kd (2'-OMe at 37, 3' idT [2'-OMe: 37, 38 = 3' inverted dT], DPBS Mg/Ca, BSA): 0.5 nM
